Assay results published in patent US20230331811A1, “IMMOBILIZED SELF-ASSEMBLED PROTEIN MULTIMERS” (CCOA THERAPEUTICS INC., priority 2020, published 2023).

Experiments:
[1] = biological target: Recombinant human ectodomain αIIbβ3, inactive (before activation) (human) (UniProt P08514); assay: flow cytometry, 50 nM Alexa488-fibrinogen on inactive αIIbβ3 beads
[2] = biological target: Recombinant human ectodomain αIIbβ3, inactive (before activation) (human) (UniProt P08514); assay: flow cytometry, 50 nM FITC-PAC 1 on inactive αIIbβ3 beads
[3] = biological target: Recombinant human ectodomain αIIbβ3, activated (high-affinity ligand binding conformation) (human) (UniProt P08514); assay: flow cytometry, 50 nM FITC-PAC 1 on activated αIIbβ3 beads
Sequence of Recombinant human ectodomain αIIbβ3, activated (high-affinity ligand binding conformation) (human) (P08514 other isoform, or with tags, fused parts or gaps limits assumed, chain 1 of 2): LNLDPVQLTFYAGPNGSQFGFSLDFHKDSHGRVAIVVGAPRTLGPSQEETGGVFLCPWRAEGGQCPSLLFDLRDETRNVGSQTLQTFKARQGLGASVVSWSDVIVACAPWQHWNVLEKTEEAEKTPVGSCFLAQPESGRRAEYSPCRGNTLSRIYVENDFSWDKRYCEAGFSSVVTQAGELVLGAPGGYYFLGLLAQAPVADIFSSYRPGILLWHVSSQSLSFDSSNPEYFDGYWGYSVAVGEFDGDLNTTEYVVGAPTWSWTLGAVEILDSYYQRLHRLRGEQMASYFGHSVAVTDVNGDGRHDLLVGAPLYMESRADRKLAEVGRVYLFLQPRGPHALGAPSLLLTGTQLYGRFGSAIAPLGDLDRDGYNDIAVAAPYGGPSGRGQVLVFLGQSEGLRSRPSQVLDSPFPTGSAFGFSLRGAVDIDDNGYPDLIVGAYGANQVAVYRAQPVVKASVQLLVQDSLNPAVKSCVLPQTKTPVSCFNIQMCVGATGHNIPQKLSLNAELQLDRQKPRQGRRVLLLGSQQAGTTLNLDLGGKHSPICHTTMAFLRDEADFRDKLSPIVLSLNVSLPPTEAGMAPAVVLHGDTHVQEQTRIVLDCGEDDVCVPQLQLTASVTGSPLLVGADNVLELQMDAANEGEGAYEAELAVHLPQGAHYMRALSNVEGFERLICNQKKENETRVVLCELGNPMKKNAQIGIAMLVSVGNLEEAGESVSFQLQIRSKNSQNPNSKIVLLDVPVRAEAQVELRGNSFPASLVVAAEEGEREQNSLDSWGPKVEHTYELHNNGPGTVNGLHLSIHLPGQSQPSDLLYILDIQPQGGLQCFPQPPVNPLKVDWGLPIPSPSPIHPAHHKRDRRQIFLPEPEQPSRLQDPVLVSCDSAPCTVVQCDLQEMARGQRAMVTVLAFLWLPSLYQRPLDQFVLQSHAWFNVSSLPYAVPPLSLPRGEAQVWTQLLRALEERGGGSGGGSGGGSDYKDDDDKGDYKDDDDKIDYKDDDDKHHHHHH
Sequence of Recombinant human ectodomain αIIbβ3, activated (high-affinity ligand binding conformation) (human) (chain, as listed by the source limits assumed, chain 2 of 2): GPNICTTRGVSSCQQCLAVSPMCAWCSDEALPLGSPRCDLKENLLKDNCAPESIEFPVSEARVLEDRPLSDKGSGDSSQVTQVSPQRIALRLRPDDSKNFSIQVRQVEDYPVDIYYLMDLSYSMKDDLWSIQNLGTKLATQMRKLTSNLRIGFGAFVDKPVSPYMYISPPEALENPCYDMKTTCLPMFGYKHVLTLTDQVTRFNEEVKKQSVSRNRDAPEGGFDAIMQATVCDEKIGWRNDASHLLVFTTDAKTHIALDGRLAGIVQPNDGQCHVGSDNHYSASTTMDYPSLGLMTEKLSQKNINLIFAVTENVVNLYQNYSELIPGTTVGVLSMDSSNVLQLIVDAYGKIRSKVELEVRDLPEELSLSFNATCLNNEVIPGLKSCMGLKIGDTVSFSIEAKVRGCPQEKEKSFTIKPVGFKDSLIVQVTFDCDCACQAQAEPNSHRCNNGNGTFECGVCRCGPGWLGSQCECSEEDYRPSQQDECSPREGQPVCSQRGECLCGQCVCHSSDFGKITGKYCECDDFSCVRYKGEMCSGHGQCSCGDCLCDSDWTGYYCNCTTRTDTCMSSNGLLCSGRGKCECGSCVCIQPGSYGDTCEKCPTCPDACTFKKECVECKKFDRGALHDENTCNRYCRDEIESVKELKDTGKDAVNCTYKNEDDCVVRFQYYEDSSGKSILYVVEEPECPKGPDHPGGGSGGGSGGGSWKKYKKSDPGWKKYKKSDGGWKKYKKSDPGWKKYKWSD

Sequence of Recombinant human ectodomain αIIbβ3, inactive (before activation) (human) (P08514 other isoform, or with tags, fused parts or gaps limits assumed, chain 1 of 2): as the sequence (P08514 other isoform, or with tags, fused parts or gaps limits assumed, chain 1 of 2) above
Sequence of Recombinant human ectodomain αIIbβ3, inactive (before activation) (human) (chain, as listed by the source limits assumed, chain 2 of 2): as the sequence (chain, as listed by the source limits assumed, chain 2 of 2) above

Mean Fluorescence Intensity (MFI) [1] [MFI]	Mean Fluorescence Intensity (MFI) [2] [MFI]	Mean Fluorescence Intensity (MFI) [3] [MFI]	Substance
52.7	–	–	Fibrinogen (from UniProt P02671 20-644; P02675 31-491; P02679 27-437) (ligand)
–	212	942	PAC-1 (antibody specific for the active upright conformation of αIIbβ3)
